{"source": "patent CN105542008A", "about": "(UNIV NANCHANG, dated 2016)", "binders": {"B1": {"name": "抗前列腺特异性膜抗原单域重链抗体噬菌体阳性克隆 (VHH)", "VHH": "QLQLVESGGGLVQPGGSLRLTCTTSGFSLRYHDIGWFRQAPGKEREGVSCITGSLGDPYVDESLQGRFTISRDDHKNMVYLRMNSLKSEDTALYYCAIVRGCKDHDAYADVRARGQGTQVTVSS", "notes": "also called 针对前列腺特异性膜抗原的单域重链抗体阳性克隆; 展示本发明所述纳米抗体的噬菌体克隆; not shown: the fusion to the phage coat protein is not described"}}, "key": {"重组表达的PSMA胞外区蛋白": {"biological_target": "T1, 重组表达的PSMA胞外区蛋白 (UniProt Q04609 44-750, limits assumed)", "T1 construct": "extracellular domain; also called 前列腺特异性膜抗原膜外区; PSMA蛋白; not shown: His tag (purified on HisTrap, detected with anti-His antibody)", "T1 sequence (Q04609 44-750 limits assumed)": "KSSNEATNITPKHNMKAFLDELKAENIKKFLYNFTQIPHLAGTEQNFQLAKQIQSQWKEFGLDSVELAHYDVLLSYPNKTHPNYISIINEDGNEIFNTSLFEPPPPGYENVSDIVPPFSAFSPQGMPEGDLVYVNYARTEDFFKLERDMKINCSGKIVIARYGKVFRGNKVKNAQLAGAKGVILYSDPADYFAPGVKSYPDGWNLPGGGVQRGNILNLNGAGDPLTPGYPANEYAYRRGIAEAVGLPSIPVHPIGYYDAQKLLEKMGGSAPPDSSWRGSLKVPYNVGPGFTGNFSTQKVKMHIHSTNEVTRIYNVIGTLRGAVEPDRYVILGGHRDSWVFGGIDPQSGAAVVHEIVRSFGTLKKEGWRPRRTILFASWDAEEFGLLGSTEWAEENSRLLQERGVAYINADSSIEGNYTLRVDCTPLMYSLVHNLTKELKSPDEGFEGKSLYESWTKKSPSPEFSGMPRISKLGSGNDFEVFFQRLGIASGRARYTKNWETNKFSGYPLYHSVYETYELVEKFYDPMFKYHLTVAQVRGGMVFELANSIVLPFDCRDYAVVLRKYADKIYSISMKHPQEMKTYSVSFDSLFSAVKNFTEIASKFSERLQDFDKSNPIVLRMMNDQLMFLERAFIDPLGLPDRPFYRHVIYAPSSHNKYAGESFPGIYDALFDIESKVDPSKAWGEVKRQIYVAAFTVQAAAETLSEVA", "assay": "indirect phage-ELISA, PSMA extracellular domain coated at 5 μg/mL, HRP-anti-M13 detection"}, "[1]": {"biological_target": "T2, 前列腺特异性膜抗原 (PSMA) on LNCaP cells (UniProt Q04609 1-750, limits assumed)", "T2 construct": "whole, on cells; also called LNCaP细胞(表达PSMA)", "T2 sequence (Q04609 whole entry)": "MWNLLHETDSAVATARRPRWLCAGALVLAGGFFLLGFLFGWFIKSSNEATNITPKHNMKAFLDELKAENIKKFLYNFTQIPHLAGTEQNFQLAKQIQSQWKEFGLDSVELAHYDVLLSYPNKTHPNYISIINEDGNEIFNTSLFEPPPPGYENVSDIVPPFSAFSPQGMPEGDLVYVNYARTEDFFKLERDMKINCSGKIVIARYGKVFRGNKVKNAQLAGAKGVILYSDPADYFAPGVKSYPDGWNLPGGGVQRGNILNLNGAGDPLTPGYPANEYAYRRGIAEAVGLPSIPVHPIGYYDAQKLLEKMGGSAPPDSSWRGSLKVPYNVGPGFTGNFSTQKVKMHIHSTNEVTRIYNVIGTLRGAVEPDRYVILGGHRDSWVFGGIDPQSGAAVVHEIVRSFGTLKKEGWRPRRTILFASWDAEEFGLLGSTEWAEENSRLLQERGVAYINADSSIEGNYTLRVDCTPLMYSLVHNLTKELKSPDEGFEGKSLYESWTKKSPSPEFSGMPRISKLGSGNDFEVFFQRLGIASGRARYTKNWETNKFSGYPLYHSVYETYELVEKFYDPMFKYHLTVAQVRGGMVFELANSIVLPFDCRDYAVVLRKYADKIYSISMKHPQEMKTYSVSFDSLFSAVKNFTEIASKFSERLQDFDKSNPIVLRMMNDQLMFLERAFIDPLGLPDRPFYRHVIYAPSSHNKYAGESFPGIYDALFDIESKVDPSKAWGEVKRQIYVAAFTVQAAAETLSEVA", "assay": "cell ELISA (HRP-anti-M13) and immunofluorescence on fixed LNCaP cells, with PSMA-negative MKN45 cells as comparison"}}}
{"binder": "B1", "values": [{"measurement": "binding result", "setting": "重组表达的PSMA胞外区蛋白", "result": "binds"}, {"measurement": "binding result", "setting": "[1]", "result": "binds"}]}
